In the supplement of paper PMC6757056:
± gives the standard deviation of the averaged measurements.

B1: library; a variant is named by its letters at N, in order (parent)
chain: GCUGUCACCGGUGCUUGGUACGUUAUAUUCAGCCGGUCUGAUGAGUCUNNNNNNAGACGAAACAGC

Tests used:
(6R,S)-folinic acid [1] = variants of: B1; assay: FACS-Seq fitted mean relative fluorescence mCherry/BFP without ligand (log10 relative fluorescence); HEK293T overexpressing SLC46A1; higher = higher reporter protein expression; conditions: without (6R,S)-folinic acid; ligand present: no
Method in brief: (§1)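 Sorting into 6 bins by mCherry/BFP followed 48 h of incubation with or without ligand. The cells were enriched HEK293T libraries lentivirally bearing an mCherry reporter with the ribozyme switch and an EF1α-BFP marker, and bin genomic DNA was PCR-amplified, barcoded and sequenced on MiSeq. Fluorescence is the fitted normal mean of the bin counts. Means were fitted on log10(mCherry/BFP), scaled to five spiked-in control ribozymes.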

(6R,S)-folinic acid [2] = variants of: B1; assay: normalized RNA/DNA level without ligand (relative to sTRSVctl = 100) (log10 (% of sTRSVctl)); HEK293T overexpressing SLC46A1; higher = less ribozyme self-cleavage, higher mRNA level; conditions: without (6R,S)-folinic acid; ligand present: no
Method in brief: (§2)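 Library plasmids carrying ribozyme switches linked to mCherry, or to eGFP in some ligand experiments, were transfected into HEK293T at 4 µg per 6-well well, with any ligand added 1 h earlier. Seventy-two hours on, total RNA was extracted with EDTA and reverse-transcribed, amplified, barcoded and sequenced. RNA level was RNA over DNA reads normalized to a spiked-in non-cleaving sequence or to the top sequences, then scaled and log-transformed. The top set was 25 sequences, the transform was ×100 and log10, and sequences needed ≥100 DNA reads.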

(6R,S)-folinic acid [3] = variants of: B1; assay: FACS-Seq fitted mean relative fluorescence mCherry/BFP with ligand (log10 relative fluorescence); HEK293T overexpressing SLC46A1; ligand concentration (+) FACS-Seq: 6 mM; higher = higher reporter protein expression; conditions: with (6R,S)-folinic acid; ligand present: yes
Method in brief: as §1

(6R,S)-folinic acid [4] = variants of: B1; assay: normalized RNA/DNA level with ligand (relative to sTRSVctl = 100) (log10 (% of sTRSVctl)); HEK293T overexpressing SLC46A1; ligand concentration (+) RNA-Seq: 6 mM; higher = less ribozyme self-cleavage, higher mRNA level; conditions: with (6R,S)-folinic acid; ligand present: yes
Method in brief: as §2

Row | Variant | FACS-Seq fitted mean (log10) ((6R,S)-folinic acid [1]) | normalized RNA/DNA level without ligand (log10) ((6R,S)-folinic acid [2]) | FACS-Seq fitted mean (log10) ((6R,S)-folinic acid [3]) | normalized RNA/DNA level with ligand (log10) ((6R,S)-folinic acid [4])
1 | GGUGAU | 0.294 ± 0.15 | 2.015 ± 0.013 | 0.491 ± 0.23 | 2.028 ± 0.018
2 | AGGUUU | 0.323 ± 0.15 | 2.003 ± 0.012 | 0.561 ± 0.075 | 2.0283 ± 0.00022
3 | AGGUUA | 0.33 ± 0.013 | 1.981 ± 0.0028 | 0.384 ± 0.056 | 1.98 ± 0.04
4 | AUACGG | 0.263 ± 0.033 | 1.919 ± 0.0086 | 0.367 ± 0.16 | 1.98 ± 0.02
5 | UUACUG | -0.466 ± 0.24 | 1.902 ± 0.011 | -0.804 ± 0.28 | 2.01 ± 0.066
6 | GGUACA | -0.547 ± 0.083 | 2.066 ± 0.0024 | -0.647 ± 0.18 | 2.07 ± 0.036
7 | UGUCCA | 0.433 ± 0.12 | 2.02 ± 0.025 | 0.395 ± 0.04 | 2.024 ± 0.014
8 | GGUUUG | 0.0685 ± 0.084 | 2.024 ± 0.0089 | -0.1121 ± 0.00036 | 2.06 ± 0.025
9 | AGUAUG | 0.41 ± 0.013 | 1.89 ± 0.022 | 0.586 ± 0.1 | 1.994 ± 0.019
10 | UGUCUG | 0.171 ± 0.096 | 1.73 ± 0.02 | 0.451 ± 0.14 | 1.96 ± 0.047
11 | UGUAUG | -0.0525 ± 0.085 | 1.707 ± 0.007 | 0.265 ± 0.086 | 1.96 ± 0.039
12 | UGUAUU | 0.438 ± 0.16 | 1.9737 ± 0.0017 | 0.253 ± 0.086 | 2.01 ± 0.032
13 | UGUAUC | -0.0452 ± 0.058 | 2.016 ± 0.019 | -0.247 ± 0.051 | 1.99 ± 0.028
14 | UUAGCA | -0.108 ± 0.12 | 1.9803 ± 0.0011 | -0.232 ± 0.1 | 2.0126 ± 0.00039
15 | UGUUAC | 0.317 ± 0.16 | 1.947 ± 0.018 | 0.39 ± 0.013 | 1.99 ± 0.021
16 | UGUUAA | -0.0426 ± 0.13 | 1.92 ± 0.024 | 0.191 ± 0.081 | 1.98 ± 0.022
17 | UGUUAG | 0.447 ± 0.11 | 1.63 ± 0.04 | 0.762 ± 0.15 | 1.929 ± 0.016
18 | GGUGCA | 0.256 ± 0.027 | 2.037 ± 0.017 | 0.204 ± 0.17 | 2.04 ± 0.032

Row | Variant | FACS-Seq fitted mean (log10) ((6R,S)-folinic acid [1]) | normalized RNA/DNA level without ligand (log10) ((6R,S)-folinic acid [2]) | FACS-Seq fitted mean (log10) ((6R,S)-folinic acid [3]) | normalized RNA/DNA level with ligand (log10) ((6R,S)-folinic acid [4])
19 | GGUGCU | -0.205 ± 0.13 | 2.005 ± 0.017 | 0.149 ± 0.25 | 2.01 ± 0.046
20 | CUAAGU | 0.502 ± 0.033 | 2 ± 0.022 | 0.535 ± 0.079 | 1.995 ± 0.0037
21 | AUACUC | 0.248 ± 0.028 | 2.049 ± 0.0056 | 0.188 ± 0.18 | 2.03 ± 0.037
22 | CGUAAA | 0.203 ± 0.0032 | 1.956 ± 0.0076 | 0.334 ± 0.32 | 1.977 ± 0.017
23 | CGUAAU | 0.544 ± 0.015 | 1.93 ± 0.029 | 0.552 ± 0.14 | 1.96 ± 0.022
24 | GUAGAU | 0.516 ± 0.029 | 1.9541 ± 0.0012 | 0.494 ± 0.37 | 1.98 ± 0.047
25 | GUAGAA | 0.384 ± 0.0046 | 1.954 ± 0.0058 | 0.522 ± 0.23 | 1.995 ± 0.0074
26 | GUAGAG | 0.201 ± 0.057 | 1.759 ± 0.015 | 0.87 ± 0.12 | 1.98 ± 0.035
27 | AGUGGA | 0.399 ± 0.14 | 1.963 ± 0.018 | 0.327 ± 0.082 | 2.015 ± 0.0071
28 | UGUGCG | 0.0533 ± 0.02 | 1.657 ± 0.011 | 0.442 ± 0.14 | 1.96 ± 0.05
29 | UGUGCU | 0.259 ± 0.17 | 2.024 ± 0.011 | 0.414 ± 0.076 | 2.07 ± 0.03
30 | CGUCUC | 0.692 ± 0.063 | 2.06 ± 0.013 | 0.48 ± 0.48 | 1.996 ± 0.015
31 | CGUCUA | -0.111 ± 0.073 | 2.0035 ± 0.0014 | 0.325 ± 0.29 | 2.033 ± 0.0082
32 | AUAGCC | 0.385 ± 0.019 | 2.036 ± 0.0053 | 0.591 ± 0.43 | 2.03 ± 0.051
33 | AUAGCA | 0.356 ± 0.058 | 1.9776 ± 0.00078 | 0.516 ± 0.016 | 2.03 ± 0.028
34 | AUAGCG | 0.172 ± 0.0027 | 1.664 ± 0.015 | 0.461 ± 0.046 | 1.96 ± 0.045
35 | AUAAAG | 0.418 ± 0.03 | 1.901 ± 0.0089 | 0.417 ± 0.016 | 2 ± 0.036
36 | AUAAAC | -0.0226 ± 0.13 | 1.998 ± 0.0043 | -0.127 ± 0.3 | 1.99 ± 0.026
